Test results taken from paper doi:10.1101/2023.02.19.529116 (bioRxiv, 2023).
Values belong to the binder of their own block, whether it stands above or below them.

B3: Smaug 70-281 (domain or fragment, Drosophila, UniProt Q23972 70-281, looked up)
chain: SNALFCEQVTTVTNLFEKWNDCERTVVMYALLKRLRYPSLKFLQYSIDSNLTQNLGTSQTNLSSVVIDINANNPVYLQNLLNAYKTFQPCDLLDAMSSSSSDKDSMPCYGSDFQITTSAQCDERKLYARKEDILHEVLNMLPLLKPGNEEAKLIYLTLIPVAVKDTMQQIVPTELVQQIFSYLLIHPAITSEDRRSLNIWLRHLEDHIQAAA
B4: Smoothened 970-1003 synthetic peptide (peptide, UniProt P91682 970-1003, looked up)
peptide: VPSYGEDELQQAMRLLNAASRQRTEAANEDFGGT
B5: Smaug 73-278Δ156-196 (Smaug part of the single-chain construct) (domain or fragment, Drosophila, UniProt Q23972 73-278, looked up)
chain: LFCEQVTTVTNLFEKWNDCERTVVMYALLKRLRYPSLKFLQYSIDSNLTQNLGTSQTNLSSVVIDINANNPVYLQNLLNAYKTARKEDILHEVLNMLPLLKPGNEEAKLIYLTLIPVAVKDTMQQIVPTELVQQIFSYLLIHPAITSEDRRSLNIWLRHLEDHIQ

What was measured:
[1] = target: B5; experiment: crystal structure
crystal structure [2] = target: the molecule itself; experiment: crystal structure
[3] = target: B4; experiment: ITC
Smaug 70-281 = target: B3; experiment: ITC
crystal structure [4] = target: the molecule itself; experiment: crystal structure; remark: listed apart in the source

binding result [1]: binds
B1: Smo 970-1003 (Smoothened part of the single-chain construct) (peptide, UniProt P91682 970-1003, looked up)
chain: VPSYGEDELQQAMRLLNAASRQRTEAANEDFGGT

B2: His-Hs-SAMD4A 2-156 (domain or fragment, human, UniProt Q9UPU9 2-156, looked up)
chain: MFRDQVGVLAGWFKGWNECEQTVALLSLLKRVSQTQARFLQLCLEHSLADCAELHVLEREANSPGIINQWQQESKDKVISLLLTHLPLLKPGNLDAKVEYMKLLPKILAHSIEHNQHIEESRQLLSYALIHPATSLEDRSALAMWLNHLEDRTST
stoichiometry N (crystal structure [2]): 2

Binder: B3
stoichiometry N [3]: 1

Binder: B4
Kd (Smaug 70-281): 800 nM

Binder: B5
binding result (crystal structure [4]): binds
